Numbering of substitutions follows the chain as printed. One block for each binder: values may come before it.
What was measured:
[1] = target: T1, human beta-klotho (KLB) on HEK293 cells (human, UniProt Q86Z14 1-1044); experiment: cell-based or functional assay
[2] = target: T2, FGFR1c/KLB: ectodomain of human FGFR1c fused to Fc, with human beta-klotho (human, UniProt P11362 22-376; Q86Z14 53-996); experiment: cell-based or functional assay
[3] = target: FGFR3c/KLB: ectodomain of human FGFR3c fused to Fc, with human beta-klotho (human, UniProt P22607 23-375; Q86Z14 53-996); experiment: cell-based or functional assay
[4] = target: T1, human beta-klotho (KLB) on HEK293 cells; experiment: cell-based or functional assay; remark: listed apart in the source
[5] = target: T3, mouse beta-klotho (KLB) on HEK293 cells (mouse, UniProt Q99N32 1-1043); experiment: cell-based or functional assay
T3 sequence (looked up): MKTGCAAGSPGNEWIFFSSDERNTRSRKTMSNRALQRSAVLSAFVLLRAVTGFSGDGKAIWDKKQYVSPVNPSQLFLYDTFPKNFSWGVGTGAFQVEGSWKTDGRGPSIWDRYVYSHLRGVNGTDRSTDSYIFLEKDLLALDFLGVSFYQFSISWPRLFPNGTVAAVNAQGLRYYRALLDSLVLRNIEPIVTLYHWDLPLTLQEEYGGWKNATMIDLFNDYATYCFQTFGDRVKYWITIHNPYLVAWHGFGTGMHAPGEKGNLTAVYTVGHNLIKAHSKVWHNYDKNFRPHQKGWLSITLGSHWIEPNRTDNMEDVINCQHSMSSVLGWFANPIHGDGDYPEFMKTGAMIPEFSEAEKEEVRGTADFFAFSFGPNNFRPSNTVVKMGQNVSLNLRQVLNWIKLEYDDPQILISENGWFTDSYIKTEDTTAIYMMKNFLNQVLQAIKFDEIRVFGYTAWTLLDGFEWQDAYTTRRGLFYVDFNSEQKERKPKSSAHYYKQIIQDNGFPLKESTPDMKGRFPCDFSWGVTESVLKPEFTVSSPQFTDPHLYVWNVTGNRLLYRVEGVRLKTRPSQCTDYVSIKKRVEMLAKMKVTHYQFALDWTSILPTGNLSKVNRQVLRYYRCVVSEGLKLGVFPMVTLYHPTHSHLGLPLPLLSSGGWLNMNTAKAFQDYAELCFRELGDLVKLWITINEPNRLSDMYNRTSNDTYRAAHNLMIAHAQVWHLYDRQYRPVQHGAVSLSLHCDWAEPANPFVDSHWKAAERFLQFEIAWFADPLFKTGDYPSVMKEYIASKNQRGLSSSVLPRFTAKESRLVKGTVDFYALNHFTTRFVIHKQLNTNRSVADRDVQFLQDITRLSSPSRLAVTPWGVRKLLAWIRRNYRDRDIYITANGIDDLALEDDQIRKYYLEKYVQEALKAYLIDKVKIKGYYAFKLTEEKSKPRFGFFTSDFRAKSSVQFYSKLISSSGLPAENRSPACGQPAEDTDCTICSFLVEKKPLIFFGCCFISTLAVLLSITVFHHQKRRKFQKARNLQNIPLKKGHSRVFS

[6] = target: cynomolgus monkey beta-klotho (KLB) on HEK293 cells (cynomolgus monkey); experiment: cell-based or functional assay
[7] = target: T2, FGFR1c/KLB: ectodomain of human FGFR1c …; experiment: AlphaScreen or HTRF; competition: biotinylated FGF21 on streptavidin donor beads, ectodomain of human FGFR1c, FGFR2c, FGFR3c or FGFR4 fused to Fc on Protein A acceptor beads, human KLB protein added; signal inhibited by increasing doses of FGF21 analog; 0.1% ovalbumin; indirect measure of binding affinity, reported as IC50; details: both partners purified
[8] = target: BSA (albumin of the FAP incubations) (bovine, UniProt P02769 25-607); experiment: cell-based or functional assay
[9] = target: human serum albumin (HSA) (human, UniProt P02768 25-609); experiment: cell-based or functional assay
[10] = target: the molecule itself; experiment: AF4-MALS; 15 at 49-88 mg/mL in 10 mM phosphate, pH 8.2 with 2% glycerol, 1 uL injected; running buffer 10 mM phosphate pH 8.2 with 10 mM NaCl; analysed again after dilution to 5 mg/mL

Chain of BSA (albumin of the FAP incubations) (P02769 25-607): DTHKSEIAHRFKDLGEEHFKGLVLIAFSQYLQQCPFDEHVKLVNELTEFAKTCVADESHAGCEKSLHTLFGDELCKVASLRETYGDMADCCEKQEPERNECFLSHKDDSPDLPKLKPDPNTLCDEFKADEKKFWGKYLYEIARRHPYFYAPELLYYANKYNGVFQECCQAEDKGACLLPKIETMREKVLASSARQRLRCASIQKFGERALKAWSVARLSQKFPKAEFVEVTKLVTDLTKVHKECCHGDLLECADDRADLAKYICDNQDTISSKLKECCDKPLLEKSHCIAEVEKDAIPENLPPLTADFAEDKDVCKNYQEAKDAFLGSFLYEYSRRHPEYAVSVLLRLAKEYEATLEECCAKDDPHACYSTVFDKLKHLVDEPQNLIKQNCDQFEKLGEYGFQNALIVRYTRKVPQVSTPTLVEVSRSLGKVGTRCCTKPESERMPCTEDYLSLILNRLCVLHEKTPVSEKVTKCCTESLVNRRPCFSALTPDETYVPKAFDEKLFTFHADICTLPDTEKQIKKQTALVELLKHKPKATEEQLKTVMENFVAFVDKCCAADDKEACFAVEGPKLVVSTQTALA

B1: Met-FGF21 (1) (ligand, human)
chain: MHPIPDSSPLLQFGGQVRQRYLYTDDAQQTEAHLEIREDGTVGGAADQSPESLLQLKALKPGVIQILGVKTSRFLCQRPDGALYGSLHFDPEACSFRELLLEDGYNVYQSEAHGLPLHLPGNKSPHRDPAPRGPARFLPLPGLPPALPEPPGILAPQPPDVGSSDPLSMVGPSQGRSPSYAS
notes: single amino acid N-terminal extension (-1M), giving the N-terminus MHPIP; human FGF21, mature 181-residue hormone (N-terminus HPIP, C-terminus Ser181); numbers count on: the mature protein; also called human FGF21 with N-terminal Met extension; -1M; source: E. coli BL21 (DE3)-derived strain, inclusion bodies, purified (Q Sepharose FF, Phenyl FF, Source 30Q where needed)
potency (EC50) of ERK phosphorylation in HEK293 cells transfected with human KLB, without HSA [1]: 1.6 nM
potency EC50 of ERK phosphorylation in Ba/F3 cells overexpressing human KLB and FGFR1c, 0% HSA [2]: 3.7 nM
potency EC50 of ERK phosphorylation in Ba/F3 cells overexpressing human KLB and FGFR3c (chimera with the kinase domain of FGFR1c), 0% HSA [3]: 10.8 nM
mean EC50 of ERK phosphorylation in HEK293 cells overexpressing human KLB (species qualification) [4]: 3 nM
mean EC50 of ERK phosphorylation in HEK293 cells overexpressing mouse KLB [5]: 0.3 nM
mean EC50 of ERK phosphorylation in HEK293 cells overexpressing cynomolgus monkey KLB [6]: 1.8 nM
pIC50 [7]: 6.56 ± 0.89

B2: stabilized backbone (4): -1A, 121Q, 168L FGF21 (ligand, human)
chain: B1 chain with M1A, N122Q, M169L
notes: single amino acid N-terminal extension (-1A), giving the N-terminus AHPIP; human FGF21, mature 181-residue hormone; numbers count on: the mature protein; also called stabilized backbone of 15; source: E. coli BL21 (DE3)-derived strain, inclusion bodies, purified (Q Sepharose FF, Phenyl FF, Source 30Q where needed)
potency (EC50) of ERK phosphorylation in HEK293 cells transfected with human KLB, without HSA (with 0.1, 1.0 and 1.5% HSA: 1.4, 0.9 and 1.5 nM, Table 3) [1]: 2 nM
pIC50 [7]: 6.18 ± 0.1

B3: FGF21 analog 18 (-1A, 121Q, 168L, 181C; C18 fatty diacid on 181C) (ligand, human)
chain: B1 chain with M1A, N122Q, M169L, S182C
modifications: C18 diacid gGlu-OEG-OEG-C2DA-Ac side chain on Cys181
notes: single amino acid N-terminal extension (-1A), giving the N-terminus AHPIP; human FGF21, mature 181-residue hormone; numbers count on: the mature protein; source: E. coli BL21 (DE3)-derived strain, inclusion bodies, purified; side chain conjugated to the Cys, purified by anion exchange (MonoQ)
potency (EC50) of ERK phosphorylation in HEK293 cells transfected with human KLB, without HSA [1]: 39 nM
pIC50 [7]: 5.72 ± 0.02

The next lines start with results.

t1/2 of 15 toward degradation by FAP in vitro in the presence of 0.1% albumin (27–57 min for 1, 15 and 5 without albumin) [8]: 7.47 h
potency (EC50) of ERK phosphorylation in HEK293 cells transfected with human KLB, without HSA [1]: 3.3 nM
potency (EC50) of ERK phosphorylation in HEK293/human KLB cells with 0.1, 1.0 and 1.5% HSA: 23, 195 and 198 nM (3.3 nM without HSA) [9]: 198 nM
potency EC50 of ERK phosphorylation in Ba/F3 cells overexpressing human KLB and FGFR1c, 0% HSA [2]: 4.1 nM
potency EC50 of ERK phosphorylation in Ba/F3 cells overexpressing human KLB and FGFR3c (chimera with the kinase domain of FGFR1c), 0% HSA [3]: 11.9 nM
mean EC50 of ERK phosphorylation in HEK293 cells overexpressing human KLB (species qualification) [4]: 2.8 nM
mean EC50 of ERK phosphorylation in HEK293 cells overexpressing mouse KLB [5]: 0.1 nM
mean EC50 of ERK phosphorylation in HEK293 cells overexpressing cynomolgus monkey KLB [6]: 1.4 nM
pIC50 [7]: 6.13 ± 0.8
B4: zalfermin (NNC0194-0499, 15) (ligand, human)
chain: B1 chain with M1A, N122Q, M169L, A181C
modifications: C18 diacid gGlu-OEG-OEG-C2DA-Ac side chain on Cys180
notes: single amino acid N-terminal extension (-1Ala), giving the N-terminus AHPIP; human FGF21, mature 181-residue hormone; numbers count on: the mature protein; 20.3 kDa; also called FGF21 analog 15; source: E. coli BL21 (DE3)-derived strain, inclusion bodies, purified; side chain conjugated to the Cys, purified by anion exchange (MonoQ)
binding result [10]: binds

potency (EC50) of ERK phosphorylation in HEK293 cells transfected with human KLB, without HSA [1]: 3.9 nM
pIC50 [7]: 5.79 ± 0.05
B5: FGF21 analog 17 (-1A, 121Q, 168L, 180C, des181; C18 fatty diacid on 180C) (ligand, human)
chain: AHPIPDSSPLLQFGGQVRQRYLYTDDAQQTEAHLEIREDGTVGGAADQSPESLLQLKALKPGVIQILGVKTSRFLCQRPDGALYGSLHFDPEACSFRELLLEDGYNVYQSEAHGLPLHLPGQKSPHRDPAPRGPARFLPLPGLPPALPEPPGILAPQPPDVGSSDPLSLVGPSQGRSPSYC
modifications: C18 diacid gGlu-OEG-OEG-C2DA-Ac side chain on Cys180
notes: single amino acid N-terminal extension (-1A), giving the N-terminus AHPIP; human FGF21, mature hormone without its last residue Ser181; numbers count on: the mature protein; source: E. coli BL21 (DE3)-derived strain, inclusion bodies, purified; side chain conjugated to the Cys, purified by anion exchange (MonoQ)
